What was measured:
[1] = molecular target: Neuronal calcium sensor-1 (NCS-1), N-terminal His tag removed with TEV protease (UniProt P62166 1-190); test: other fluorescence titration; intrinsic tryptophan fluorescence of 1 μM NCS-1 (excitation 280 nm, emission 290-410 nm), PQIQ peptide added stepwise; 50 mM Tris pH 7.5, 50 mM NaCl, 5 mM CaCl2; room temperature; logistic fit; triplicate; settings: both partners purified
[2] = molecular target: Calmodulin (CaM) expressed from pET-15b (UniProt P0DP23 1-149); test: NMR titration; 1H-15N HSQC of [15N]NCS-1 (0.8 mM) with PQIQ peptide, then equimolar unlabelled CaM/Ca2+ added to the preformed complex; 50 mM Tris pH 6.5, 50 mM NaCl, 5 mM CaCl2, 300 K; settings: both partners purified

Neuronal calcium sensor-1 (NCS-1), N-terminal His tag removed with TEV protease, sequence (P62166 whole entry): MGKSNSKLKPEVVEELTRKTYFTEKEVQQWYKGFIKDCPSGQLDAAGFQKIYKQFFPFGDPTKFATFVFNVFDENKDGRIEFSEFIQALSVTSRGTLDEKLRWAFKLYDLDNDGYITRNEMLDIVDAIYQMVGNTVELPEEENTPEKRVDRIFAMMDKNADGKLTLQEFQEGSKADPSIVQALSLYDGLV

EC50 [1]: 1040 ± 70 nM
binding result [2]: binds
B1: PQIQ peptide, synthetic P/Q peptide corresponding to residues 1903-1929 of the human P/Q receptor (peptide)
peptide: TVGKIYAAMMIMEYYRQSKAKKLQAMR
